Measurements reported in patent US20090011988A1 (Genentech, published 2009).
Positions of bridges follow the written chain, without caps; N, C: chain ends. No end group written: not given here.

B1: 4D3.9 (peptide)
peptide displayed on M13 phage as a fusion to g8p: ETVANCDCYMDLCLCYGSDR
modifications: not fully specified (bridges); cysteine pairing not given here; also: displayed on phage as g8p fusion
notes: whole phage particle in the assay; also called peptide-phage clone 4D3.9 (g8 display)
B2: 4D3.8 (peptide)
peptide displayed on M13 phage as a fusion to g8p: SEEVCWPVAEWYLCNILGP
modifications: not fully specified (bridges); cysteine pairing not given here; also: displayed on phage as g8p fusion
notes: whole phage particle in the assay; also called peptide-phage clone 4D3.8 (g8 display)
B3: 4D3.12 (peptide)
peptide displayed on M13 phage as a fusion to g8p: AEWAECWIAGDQLLCVGKDN
modifications: not fully specified (bridges); cysteine pairing not given here; also: displayed on phage as g8p fusion
notes: whole phage particle in the assay; also called peptide-phage clone 4D3.12 (g8 display)
B4: peptide-phage clone 4C3.2 (g8 display) (peptide, not shown: large carriers)
chain: ELDGWVCIKVGEQNLCYLAE
modifications: not fully specified (bridges); cysteine pairing not given here; also: polyvalent display on M13 phage, fused via linker to g8p
notes: polyvalent display on M13 phage
B5: BP1-21A (peptide)
peptide: SEVGCRAGPLQWLCEKYFSTY-NH2
modifications: disulfide 5-14; N-terminus assumed
SMILES: CC(C)C[C@@H]1NC(=O)[C@H](Cc2c[nH]c3ccccc23)NC(=O)[C@H](CCC(N)=O)NC(=O)[C@H](CC(C)C)NC(=O)[C@@H]2CCCN2C(=O)CNC(=O)[C@H](C)NC(=O)[C@H](CCCNC(=N)N)NC(=O)[C@@H](NC(=O)CNC(=O)[C@@H](NC(=O)[C@H](CCC(=O)O)NC(=O)[C@@H](N)CO)C(C)C)CSSC[C@@H](C(=O)N[C@@H](CCC(=O)O)C(=O)N[C@@H](CCCCN)C(=O)N[C@@H](Cc2ccc(O)cc2)C(=O)N[C@@H](Cc2ccccc2)C(=O)N[C@@H](CO)C(=O)N[C@H](C(=O)N[C@@H](Cc2ccc(O)cc2)C(N)=O)[C@@H](C)O)NC1=O
notes: also called Y135C
B6: BP1-20 (peptide)
peptide: EARVCRAGPLQWLCEKYF-NH2
modifications: disulfide 5-14; N-terminus assumed
SMILES: CC(C)C[C@@H]1NC(=O)[C@H](Cc2c[nH]c3ccccc23)NC(=O)[C@H](CCC(N)=O)NC(=O)[C@H](CC(C)C)NC(=O)[C@@H]2CCCN2C(=O)CNC(=O)[C@H](C)NC(=O)[C@H](CCCNC(=N)N)NC(=O)[C@@H](NC(=O)[C@@H](NC(=O)[C@H](CCCNC(=N)N)NC(=O)[C@H](C)NC(=O)[C@@H](N)CCC(=O)O)C(C)C)CSSC[C@@H](C(=O)N[C@@H](CCC(=O)O)C(=O)N[C@@H](CCCCN)C(=O)N[C@@H](Cc2ccc(O)cc2)C(=O)N[C@@H](Cc2ccccc2)C(N)=O)NC1=O

Legend:
[1] = molecular target: recombinant human IGFBP-3 (human, UniProt P17936 28-291); experiment: phage ELISA (IGF-blocking phage assay): g8 peptide-phage at a 50-fold dilution on an IGFBP-3-coated plate, without and with IGF-1; OD492
Description: The plates were then washed ten times, as above, and a solution of rabbit anti-phage antibody mixed with a goat-anti-rabbit conjugate of horseradish peroxidase was added. After an incubation of 1 hour at room temperature, the plates were developed with a chromogenic substrate, o-phenylenediamine (Sigma). The reaction was stopped with addition of ½ volume of 2.5 M H₂SO₄. Optical density at 490 nm was measured on a spectrophotometric plate reader.
In each case, the phagemid clone was grown from a single colony overnight at 37° C. in a culture volume of 5 ml. The phage particles were precipitated and resuspended in 0.5 ml of PBS buffer.

[2] = molecular target: T1, human IGFBP-1 (human, UniProt P08833 26-259); experiment: BIAcore kinetics, IGFBP-1 coupled to chip
T1 sequence (looked up): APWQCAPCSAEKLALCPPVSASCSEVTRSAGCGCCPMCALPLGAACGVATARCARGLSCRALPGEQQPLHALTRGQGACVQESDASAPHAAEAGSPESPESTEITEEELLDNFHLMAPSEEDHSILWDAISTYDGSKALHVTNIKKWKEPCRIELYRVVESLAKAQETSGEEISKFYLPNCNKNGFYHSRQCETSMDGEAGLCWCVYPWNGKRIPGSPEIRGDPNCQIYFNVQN
Description: For each dilution of peptides, a global fit of the sensorgram data was performed using a 1:1 Langmuir binding model.

[3] = molecular target: T1, human IGFBP-1; experiment: BIAcore inhibition assay
Description: Peptides were assayed in a BIAcore™ assay as described in WO 98/45427, supra.

recombinant human IGFBP-3, sequence (P17936 28-291 limits assumed): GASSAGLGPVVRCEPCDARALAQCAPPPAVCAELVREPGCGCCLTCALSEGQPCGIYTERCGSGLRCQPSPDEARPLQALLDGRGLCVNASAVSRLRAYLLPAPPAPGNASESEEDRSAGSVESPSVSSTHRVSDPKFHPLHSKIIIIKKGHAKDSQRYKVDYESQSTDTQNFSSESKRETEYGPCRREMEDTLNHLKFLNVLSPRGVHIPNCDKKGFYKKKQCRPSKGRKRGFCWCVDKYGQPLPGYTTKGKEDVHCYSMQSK

Binder	binding result [1]	Kd [2] [nM]	fold potency reduction, IC50 (BP1-01)/IC50 (mut) [3]
B1	binds	–	–
GQQSCRAGPLQWLCEKYFSTY (disulfide 5-14, also called Y0791A) [BP1-40]	–	27	–
Ac-RAGPLEWLAEKYFE (linker 6-14 via 1,5‑diaminopentane) [(i+8)C]	–	–	5.9
B2	binds	–	–
Ac-RPLEWLAEKYFE (linker 4-12 via 1,5‑diaminopentane) [(i+8)B]	–	–	7.7
B3	binds	–	–
B4	binds	–	–
B5	–	41	–
B6	–	33	–
Ac-RAGPLEWLAEKYEG (linker 6-13 via 1,5‑diaminopentane) [(i+7)D]	–	–	7.7
